Reference: patent US7189694B2, “Inhibitors of autophosphorylation protein kinases” (University of Florida Research Foundation, Inc., priority 2003, dated 2007)
Ends that are not written are not given here.

Experiments:
[1] = biological target: T1, JAK2 WT peptide (JAK2 autophosphorylation site 1001LPQDKEYYKVKEP) (Homo sapiens, UniProt O60674); experiment: ELISA binding of biotinylated JAK2 WT peptide to solid-phase peptides; conditions: FIG. 1A; ELISA, peptides coated on 96-well plates
T1 construct: made in house; host or cells: chemical synthesis (Fmoc)
Description: Binding assays: For ELISA binding assays Tkip and other peptides to be tested were bound to 96-well plates in 0.1 M carbonate binding buffer (pH 9.6) at a final concentration of 3 μg/well (50 μl). Wells were then washed three times with wash buffer containing 0.9% NaCl and 0.05% tween-20 in PBS and blocked with 2% gelatin and 0.05% tween-20 in PBS for 1 h at room temperature. Wells were then washed three times with wash buffer and incubated with various concentrations of biotinylated JAK2 WT peptide and biotinylated P-JAK2 WT peptide for 1 h at room temperature in blocking buffer. Following incubation, wells were washed five times with wash buffer to remove any unbound biotinylated peptides. Bound biotinylated peptides were detected by incubation with a 1:500 dilution of NEUTRAVIDIN biotin binding-protein conjugated with horseradish peroxidase (Molecular Probes, Eugene, Oreg.) in blocking buffer for 1 h at room temperature. Wells were then washed five times with wash buffer and developed with a solution of o-phenylenediamine (OPD) in stable peroxidase buffer (Pierce, Rockford, Ill.). The assay was stopped with the addition of 2 M H2SO4 (50 μl) to each well. Absorbance was measured using a 450 microplate reader (Bio-rad, Hercules, Calif.) at 490 nm. Control experiments were carried out as described above in the absence of immobilized peptides.

recombinant human JAK2 = biological target: T2, recombinant human JAK2 (Homo sapiens, UniProt O60674); experiment: In vitro JAK2 kinase assay (32P, SDS-PAGE, autoradiography); format: biochemical; conditions: peptide at 50 μM
T2 construct: purchased Upstate Biotechnology, Lake Placid, N.Y
T2 sequence (O60674 whole entry): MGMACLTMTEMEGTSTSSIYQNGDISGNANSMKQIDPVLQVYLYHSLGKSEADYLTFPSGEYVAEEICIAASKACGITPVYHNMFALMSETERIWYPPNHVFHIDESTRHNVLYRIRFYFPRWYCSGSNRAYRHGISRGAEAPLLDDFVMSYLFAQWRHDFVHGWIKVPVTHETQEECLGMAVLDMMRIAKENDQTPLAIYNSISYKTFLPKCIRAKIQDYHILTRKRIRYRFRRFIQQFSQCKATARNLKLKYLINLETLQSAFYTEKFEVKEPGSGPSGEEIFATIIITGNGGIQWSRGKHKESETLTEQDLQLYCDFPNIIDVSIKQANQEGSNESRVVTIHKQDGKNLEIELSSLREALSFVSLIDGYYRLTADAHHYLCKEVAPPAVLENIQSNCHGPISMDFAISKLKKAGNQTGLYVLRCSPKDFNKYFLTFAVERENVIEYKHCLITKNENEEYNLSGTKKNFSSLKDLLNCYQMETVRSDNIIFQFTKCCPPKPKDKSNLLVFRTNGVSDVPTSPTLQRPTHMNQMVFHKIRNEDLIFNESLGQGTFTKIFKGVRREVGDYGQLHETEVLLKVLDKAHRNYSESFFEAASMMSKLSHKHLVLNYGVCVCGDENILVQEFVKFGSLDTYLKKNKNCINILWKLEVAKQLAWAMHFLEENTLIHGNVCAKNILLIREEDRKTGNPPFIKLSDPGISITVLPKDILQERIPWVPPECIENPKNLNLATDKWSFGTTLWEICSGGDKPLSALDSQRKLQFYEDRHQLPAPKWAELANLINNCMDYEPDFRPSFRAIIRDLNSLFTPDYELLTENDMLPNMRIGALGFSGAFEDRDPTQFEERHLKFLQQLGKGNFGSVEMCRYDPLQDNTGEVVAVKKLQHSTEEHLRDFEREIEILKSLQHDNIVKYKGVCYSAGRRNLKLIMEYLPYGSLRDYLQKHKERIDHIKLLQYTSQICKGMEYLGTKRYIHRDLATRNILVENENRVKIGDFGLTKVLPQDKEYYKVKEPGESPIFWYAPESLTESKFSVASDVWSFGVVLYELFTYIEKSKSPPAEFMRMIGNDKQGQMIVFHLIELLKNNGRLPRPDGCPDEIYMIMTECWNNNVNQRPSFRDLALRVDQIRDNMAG
Description: Determination of JAK2 autophosphorylation activity was performed in reaction mixtures containing recombinant human JAK2 immobilized on agarose beads (Upstate Biotechnology, Lake Placid, N.Y.), 1 μCi/μl of [^32P]γ-ATP (Amersham Biosciences, Piscataway, N.J.), and either Tkip or JAK 2 WT peptide incubated in kinase buffer (10 mM HEPES [pH 7.4], 50 mM sodium chloride, 0.1 mM sodium orthovanadate, 5 mM magnesium chloride, 5 mM manganese chloride). JAK2 kinase assays were performed in 35 μL reaction volumes containing 10.5 μL Tkip, 20 μL JAK2 agarose beads, 1 μL sIFNGR-1, and 3.5 μL [^32P]γ-ATP incubated at 30° C. for 30 min with intermittent agitation. […] EGFR, VEGFR, and JAK2 kinase reactions were terminated with the addition of 5 μl 6×SDS sample buffer (0.5 M Tris-HCl [pH 6.8], 36% glycerol, 10% SDS, 9.3% DTT, 0.012% bromophenol blue). Incubation of JAK2 agarose beads in SDS sample buffer (100° C.) was designed to elute bound proteins from the agarose beads. The reaction mixtures were separated on a 10% SDS polyacrilamide gel. Autoradiography was used to determine phosphorylation activity.

[2] = system: biotinylated JAK2 WT peptide binding to Tkip peptide; experiment: ELISA peptide competition for biotinylated JAK2 WT binding to Tkip; design: species or system human; conditions: FIG. 1B; unlabeled competitor peptide
Description: Peptide competition experiments were conducted using peptides derived from the JAK tyrosine kinase family, vascular endothelial growth factor receptor (VEGFR), and cyclin dependent kinase (CDK) to compete with biotinylated JAK2 WT peptide for binding to Tkip. Binding of biotinylated JAK2 WT was determined as above, except that following Tkip peptide immobilization, washing, and blocking in blocking buffer for 1 hr at room temperature unlabeled competitors were added to wells and incubated for 30 min at varying concentrations before biotinylated JAK2 WT peptide was incubated for 1 hr in each well to determine the extent of competition with unlabeled peptides. Detection and analysis of binding was carried out as described above.

[3] = system: MHC class I expression on WISH cells; experiment: Flow cytometry of IFN-γ induced MHC class I expression on WISH cells; format: cell-based, human
Description: Flow Cytometry: WISH fibroblast cells (2×10^6) were incubated for 48 h with media alone, 25 μM MuIFNγ(95–125) peptide, or lipophilic Tkip (LT) at varying concentrations (1 μM, 10 μM, 25 μM) in the presence or absence of 5000 units/ml IFN-γ in 6-well culture plates at 37° C. in a 5% CO2 atmosphere. Following incubation, cells were washed twice with PBS and harvested by trypsinization into two sets of 5-ml round bottom polystyrene tubes (Fisher, Pittsburgh, Pa.) and washed twice with PBS. For cell surface staining a direct immunofluorescence protocol was employed. […] The fluorescent-conjugated isotype antibody was used to determine background fluorescence by identifying nonspecific binding of the monoclonal antibody to WISH cells. […] WISH fibroblast cells were finally resuspended in 500 μl of PBS and analyzed on a FACScan fluorescence-activated cell sorter (Becton Dickinson, San Jose, Calif.). […] The red fluorescence of R-PE was excited at 488 nm. […] The fluorescence intensity of the negative controls were subtracted from the mean fluorescence for the R-PE labeled cells. […] Flow cytometry data were analyzed using CellQuest analysis software (Becton Dickinson, San Jose, Calif.).

| Substance | binding of biotinylated JAK2 WT peptide to solid-phase peptide [1] | inhibition of biotinylated JAK2 WT peptide binding to Tkip peptide [2] | further results |
| --- | --- | --- | --- |
| AKFEVNNPQVQRQAFNELIRVVHQLLPESSL (amino acid sequence of a peptide used for control purposes) [IFN-γ95–125] | negligible | – | – |
| EMLVLLMALKLLA (amino acid sequence of a peptide that can be used according to the present invention) | – | – | inhibition of JAK2 autophosphorylation (recombinant human JAK2): inhibited autophosphorylation of JAK2 (lane 7 of FIG. 4, upper panel), although it was not as effective as the Tkip peptide |
| KTEGVPSTAIREISLLKELNH (amino acid sequence of a peptide used for control purposes) [CDK 41–61, cyclin-dependent kinase, cyclin box peptide 41–61] | negligible | neither CDK 41–61 nor VEGFR 1208–1222, inhibited | – |
| LPQDKEYYKVKEP (amino acid sequence of a peptide used for control purposes) [JAK2 WT, JAK2 autophosphorylation site peptide, residues 1001-1013; control peptide, reference compound] | – | inhibited | inhibition of JAK2 autophosphorylation (recombinant human JAK2): had no effect; inhibition of JAK2 phosphorylation of IFNGR-1 (recombinant human JAK2): had no effect |
| NGVLFLMIFHFLG (amino acid sequence of a peptide that can be used according to the present invention) | – | – | inhibition of JAK2 phosphorylation of IFNGR-1 (recombinant human JAK2): did inhibit |
| SSDVRYVNAFKFM (amino acid sequence of a peptide used for control purposes) [VEGFR 1208–1222, vascular endothelial growth factor receptor autophosphorylation peptide] | negligible | neither CDK 41–61 nor VEGFR 1208–1222, inhibited | – |
| control lipophilic peptide (IFN-γ 95–125): lipophilic irrelevant peptide MuIFN-γ(95–125) (AKFEVNNPQVQRQAFNELIRVVHQLLPESSL; also: lipophilic group, site not given here; UniProt P01580 117-147, looked up, fragment) [reference compound] | – | – | effect on IFN-γ upregulation of MHC class I expression ([3]; 10 μM or 25 μM Tkip (control 25 μM), 5000 U/ml human IFN-γ, 48 h): had no effect |
| human IFN-γ: human gamma interferon cytokine used as stimulus | – | – | increase in MHC class I as per FACS analysis ([3]; 5000 U/ml): over 3 fold |
